Data on one substance can be found in patent US20230390340A1.

In the assay the target is ApoE dependent receptors (on bEND.3 mouse endothelial cells) (mouse). Put plainly: cell-based or functional assay.

Consider “IDS.ApoEII (human iduronate-2-sulfatase with C-terminal invariant flexible linker and ApoE receptor-binding tandem repeat) (from UniProt P22304 26-550) (enzyme)”, for which the uptake of IDS.ApoEII into bEND.3 cells after 24 hours, following blocking with human recombinant ApoE turned out to be 30%.
